{"source": "patent US20250243277A1", "about": "(AVACTA LIFE SCIENCES, published 2025)", "binders": {"B1": {"name": "Clone 193 (designed binder)", "chain": "MIPGGLSEAKPATPEIQEIVDKVKPQLEEKTGETYGKLEAVQYKTQVVLRHPVQDDDGTNYYIKVRAGDNKYMHLKVFKSLAGVNRWKWIEDLVLTGYQVDKNKDDELTGF", "notes": "His-tagged"}, "B2": {"name": "Clone 49 (designed binder)", "chain": "MIPGGLSEAKPATPEIQEIVDKVKPQLEEKTGETYGKLEAVQYKTQVVKYYAIFDYKGTNYYIKVRAGDNKYMHLKVFKSLFKEKVRNSIEDLVLTGYQVDKNKDDELTGF", "notes": "His-tagged"}, "B3": {"name": "Clone 181 (designed binder)", "chain": "MIPGGLSEAKPATPEIQEIVDKVKPQLEEKTGETYGKLEAVQYKTQVVKAYKVFNYIGTNYYIKVRAGDNKYMHLKVFKSLFKWDNGISDEDLVLTGYQVDKNKDDELTGF", "notes": "His-tagged"}, "B4": {"name": "Clone 217 (designed binder)", "chain": "MIPGGLSEAKPATPEIQEIVDKVKPQLEEKTGETYGKLEAVQYKTQVVKKYVIFFYEGTNYYIKVRAGDNKYMHLKVFKSLFVNKGGSDDEDLVLTGYQVDKNKDDELTGF", "notes": "His-tagged"}, "B5": {"name": "Clone 81 (designed binder)", "chain": "MIPGGLSEAKPATPEIQEIVDKVKPQLEEKTGETYGKLEAVQYKTQVVKAYVIWSYKGTNYYIKVRAGDNKYMHLKVFKSLFYGEPRGKGEDLVLTGYQVDKNKDDELTGF", "notes": "His-tagged"}, "B6": {"name": "Clone 173 (designed binder)", "chain": "MIPGGLSEAKPATPEIQEIVDKVKPQLEEKTGETYGKLEAVQYKTQVVDWPSHAKFWGTNYYIKVRAGDNKYMHLKVFKSLFLPDKDDPFEDLVLTGYQVDKNKDDELTGF", "notes": "His-tagged"}, "B7": {"name": "Clone 178 (designed binder)", "chain": "MIPGGLSEAKPATPEIQEIVDKVKPQLEEKTGETYGKLEAVQYKTQVVDHLPHAKYWGTNYYIKVRAGDNKYMHLKVFKSLWYQPRWKVEEDLVLTGYQVDKNKDDELTGF", "notes": "His-tagged"}, "B8": {"name": "Clone 2 (designed binder)", "chain": "MIPGGLSEAKPATPEIQEIVDKVKPQLEEKTGETYGKLEAVQYKTQVVASFIDIGWHGTNYYIKVRAGDNKYMHLKVFKSLREGKHGRNKEDLVLTGYQVDKNKDDELTGF", "notes": "His-tagged"}, "B9": {"name": "Clone 185 (designed binder)", "chain": "MIPGGLSEAKPATPEIQEIVDKVKPQLEEKTGETYGKLEAVQYKTQVVVVLFASGWEGTNYYIKVRAGDNKYMHLKVFKSLIQWRDHKPREDLVLTGYQVDKNKDDELTGF", "notes": "His-tagged"}, "B10": {"name": "Clone 172 (designed binder)", "chain": "MIPGGLSEAKPATPEIQEIVDKVKPQLEEKTGETYGKLEAVQYKTQVVSVFQYTYKFGTNYYIKVRAGDNKYMHLKVFKSLNNKPPHNDLEDLVLTGYQVDKNKDDELTGF", "notes": "His-tagged"}, "B11": {"name": "Clone 198 (designed binder)", "chain": "MIPGGLSEAKPATPEIQEIVDKVKPQLEEKTGETYGKLEAVQYKTQVVSSPLHWELWHWSGTNYYIKVRAGDNKYMHLKVFKSLELNNKDQNDEDLVLTGYQVDKNKDDELTGF", "notes": "His-tagged"}, "B12": {"name": "Clone 180 (designed binder)", "chain": "MIPGGLSEAKPATPEIQEIVDKVKPQLEEKTGETYGKLEAVQYKTQVVLQGSRLPIEGTNYYIKVRAGDNKYMHLKVFKSLGWHNVTLPPEDLVLTGYQVDKNKDDELTGF", "notes": "His-tagged"}, "B13": {"name": "Clone 191 (designed binder)", "chain": "MIPGGLSEAKPATPEIQEIVDKVKPQLEEKTGETYGKLEAVQYKTQVVLRYHFPEFHGTNYYIKVRAGDNKYMHLKVFKSLNHLAIHELPEDLVLTGYQVDKNKDDELTGF", "notes": "His-tagged"}, "B14": {"name": "Clone 182 (designed binder)", "chain": "MIPGGLSEAKPATPEIQEIVDKVKPQLEEKTGETYGKLEAVQYKTQVVLKTNPSPSDGTNYYIKVRAGDNKYMHLKVFKSLAVFRQRLGVEDLVLTGYQVDKNKDDELTGF", "notes": "His-tagged"}, "B15": {"name": "Clone 186 (designed binder)", "chain": "MIPGGLSEAKPATPEIQEIVDKVKPQLEEKTGETYGKLEAVQYKTQVVYDNVKEYPWGTNYYIKVRAGDNKYMHLKVFKSLKWYDPTIRPEDLVLTGYQVDKNKDDELTGF", "notes": "His-tagged"}, "B16": {"name": "Clone 177 (designed binder)", "chain": "MIPGGLSEAKPATPEIQEIVDKVKPQLEEKTGETYGKLEAVQYKTQVVISEDSWWPHGTNYYIKVRAGDNKYMHLKVFKSLNWFHQPWQREDLVLTGYQVDKNKDDELTGF", "notes": "His-tagged"}, "B17": {"name": "Clone 192 (designed binder)", "chain": "MIPGGLSEAKPATPEIQEIVDKVKPQLEEKTGETYGKLEAVQYKTQVVTENNSWWPIGTNYYIKVRAGDNKYMHLKVFKSLNWFSDEAPYEDLVLTGYQVDKNKDDELTGF", "notes": "His-tagged"}, "B18": {"name": "Clone 199 (designed binder)", "chain": "MIPGGLSEAKPATPEIQEIVDKVKPQLEEKTGETYGKLEAVQYKTQVVRDHELVNQWGTNYYIKVRAGDNKYMHLKVFKSLFGQPVQGNTEDLVLTGYQVDKNKDDELTGF", "notes": "His-tagged"}, "B19": {"name": "Clone 188 (designed binder)", "chain": "MIPGGLSEAKPATPEIQEIVDKVKPQLEEKTGETYGKLEAVQYKTQVVPQENAPWVLGTNYYIKVRAGDNKYMHLKVFKSLNWDQPDTVLEDLVLTGYQVDKNKDDELTGF", "notes": "His-tagged"}, "B20": {"name": "Clone 183 (designed binder)", "chain": "MIPGGLSEAKPATPEIQEIVDKVKPQLEEKTGETYGKLEAVQYKTQVVRQTDSVKWWGTNYYIKVRAGDNKYMHLKVFKSLWYNRYYNDFEDLVLTGYQVDKNKDDELTGF", "notes": "His-tagged"}, "B21": {"name": "Clone 197 (designed binder)", "chain": "MIPGGLSEAKPATPEIQEIVDKVKPQLEEKTGETYGKLEAVQYKTQVVWKPQDSVNWGTNYYIKVRAGDNKYMHLKVFKSLDWDGAAGDAEDLVLTGYQVDKNKDDELTGF", "notes": "His-tagged"}, "B22": {"name": "Clone 18 (designed binder)", "chain": "MIPGGLSEAKPATPEIQEIVDKVKPQLEEKTGETYGKLEAVQYKTQVVEAHQDLHFWGTNYYIKVRAGDNKYMHLKVFKSLLTEHNKKHQERHLDHEDLVLTGYQVDKNKDDELTGF", "notes": "His-tagged"}, "B23": {"name": "Clone 187 (designed binder)", "chain": "MIPGGLSEAKPATPEIQEIVDKVKPQLEEKTGETYGKLEAVQYKTQVVIQDWTVGWEGTNYYIKVRAGDNKYMHLKVFKSLRIGRSTNLWEDLVLTGYQVDKNKDDELTGF", "notes": "His-tagged"}, "B24": {"name": "Clone 254 (designed binder)", "chain": "MIPGGLSEAKPATPEIQEIVDKVKPQLEEKTGETYGKLEAVQYKTQVVISDVSVGWEGTNYYIKVRAGDNKYMHLKVFKSLRSGPAHVRREDLVLTGYQVDKNKDDELTGF", "notes": "His-tagged"}, "B25": {"name": "Clone 195 (designed binder)", "chain": "MIPGGLSEAKPATPEIQEIVDKVKPQLEEKTGETYGKLEAVQYKTQVVVGVGRDFPKGTNYYIKVRAGDNKYMHLKVFKSLYIHYLKVNEEDLVLTGYQVDKNKDDELTGF", "notes": "His-tagged"}}, "data": [{"target": "T1, human PD-L1-Fc (R&D Systems) (human, UniProt Q9NZQ7 19-239)", "T1 construct": "Bought from R&D Systems; Biotinylated in-house for the phage selection; also called huPD-L1-Fc; human PD-L1-Fc antigen; not shown: Fc part of the bought fusion", "T1 sequence (Q9NZQ7 19-239 limits assumed)": "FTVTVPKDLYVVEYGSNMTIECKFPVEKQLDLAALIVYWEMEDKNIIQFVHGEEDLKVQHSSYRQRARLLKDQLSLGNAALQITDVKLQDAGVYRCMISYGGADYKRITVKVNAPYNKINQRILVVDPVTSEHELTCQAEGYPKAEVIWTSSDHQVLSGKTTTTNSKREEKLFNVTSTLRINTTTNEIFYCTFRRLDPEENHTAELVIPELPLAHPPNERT", "assay": "soluble Affimer ELISA", "values": [{"binder": "B1", "binding result": "binds"}, {"binder": "B2", "binding result": "binds"}, {"binder": "B3", "binding result": "binds"}, {"binder": "B4", "binding result": "binds"}, {"binder": "B5", "binding result": "binds"}, {"binder": "B6", "binding result": "binds"}, {"binder": "B7", "binding result": "binds"}, {"binder": "B8", "binding result": "binds"}, {"binder": "B9", "binding result": "binds"}, {"binder": "B10", "binding result": "binds"}, {"binder": "B11", "binding result": "binds"}, {"binder": "B12", "binding result": "binds"}, {"binder": "B13", "binding result": "binds"}, {"binder": "B14", "binding result": "binds"}, {"binder": "B15", "binding result": "binds"}, {"binder": "B16", "binding result": "binds"}, {"binder": "B17", "binding result": "binds"}, {"binder": "B18", "binding result": "binds"}, {"binder": "B19", "binding result": "binds"}, {"binder": "B20", "binding result": "binds"}, {"binder": "B21", "binding result": "binds"}, {"binder": "B22", "binding result": "binds"}, {"binder": "B23", "binding result": "binds"}, {"binder": "B24", "binding result": "binds"}, {"binder": "B25", "binding result": "binds"}]}]}
